Results on 13 molecules are retold here after PMC4114688.

Experiment in all cases: EMSA
Data set [1] deals with T1, RBPMS isoform A (Homo sapiens, UniProt Q93062 1-196).
For data set [2], the target named is T2, RBPMS2 (UniProt Q6ZRY4 1-209).
For data set [3], the target named is T2, RBPMS2. The source holds these as a separate data set.
Data set [4] addresses T1, RBPMS isoform A. The source holds these as a separate data set.
The target of another data set is RBPMS 1-100 (Homo sapiens, UniProt Q93062 1-100).
In the next data set the target is RBPMS 1-144 (Homo sapiens, UniProt Q93062 1-144).
Data set [5] concerns the target T1, RBPMS isoform A. The source holds these as a separate data set.

Like-named read-outs stand apart in the source and are kept apart here.

T2 sequence (Q6ZRY4 whole entry): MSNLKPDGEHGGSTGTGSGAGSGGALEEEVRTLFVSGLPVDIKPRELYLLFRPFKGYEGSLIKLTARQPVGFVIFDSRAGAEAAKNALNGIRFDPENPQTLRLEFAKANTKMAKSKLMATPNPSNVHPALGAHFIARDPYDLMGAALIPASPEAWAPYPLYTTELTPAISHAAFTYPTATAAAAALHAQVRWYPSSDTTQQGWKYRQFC

UUUUUUUUUUUUUUUUUU (ssRNA) [U18]: the binding result with RBPMS isoform A [1] is listed as “no binding”.
Turning to GCCGCCGCCGCCGCCGCC (ssRNA) [(GCC)6], in the data set with RBPMS isoform A [1], the binding result is recorded as “no binding”.
Consider CAUCAUCAUCAUCAUCAU (ssRNA) [(CAU)6], for which the binding result in the data set with RBPMS2 [2] and in the data set with RBPMS isoform A [1] was “no binding” in each case.
Consider AAAAAAAAAAAAAAAAAA (ssRNA) [A18], for which the binding result with RBPMS isoform A [1] is recorded as “no binding”.
Same read-out and setting: for UACUCACUCACUCUCCACGAG (ssRNA) [UBE2V1 or SRM 21-nt wt (a)] the value was “binds”; for GGCGGCGGCGGCGGCGGC (ssRNA) [(GGC)6], “no binding”.
On to CACCACCACCACCACCAC (ssRNA) [(CAC)6], for which the binding result with RBPMS2 [2] and with RBPMS isoform A [1] was “binds” each time.
In the case of AGAGAGAGAGAGAGAGAG (ssRNA) [(AG)9], the binding result with RBPMS isoform A [1] is “no binding”.
For the molecule CCCUCACUCACCAAACACGUG (ssRNA) [UBE2V1 or SRM 21-nt wt (b)], the binding result with RBPMS isoform A [1] is “binds”.
Consider CUCUCUCUCUCUCUCUCU (ssRNA) [(CU)9], for which the binding result with RBPMS2 [2] and with RBPMS isoform A [1] was “no binding” in each case.
As to AGGCACUUUCAACUUCACUCC (ssRNA) [ETF1 21-nt wt], the binding result with RBPMS isoform A [1] and with RBPMS2 [3] was “binds” in each case.
Consider ACACACACACACAC (ssRNA) [(AC)7], for which the binding result with RBPMS isoform A [4] is “binds”.
For ACACACACACACACACAC (ssRNA) [(AC)9], the binding result with RBPMS 1-100 is reported as “no binding”; in the data set with RBPMS2 [2], “binds”; with RBPMS 1-144, “binds”; with RBPMS isoform A [5], “binds”.
